We go through 6 molecules from PMC8916728 (2022).

B6: soluble ectodomain of the HCMV Pentamer (strain Towne) (complex)
chain 1: RYGAEAISEPLDKAFHLLLNTYGRPIRFLRENTTQCTYNSSLRNSTVVRENAISFNFFQSYNQYYVFHMPRCLFAGPLAEQFLNQVDLTETLERYQQRLNTYALVSKDLASYRSFSQQLKAQDSLGEQPTTVPPPIDLSIPHVWMPPQTTPHGWTESHTTSGLHRPHFNQTCILFDGHDLLFSTVTPCLHQGFYLIDELRYVKITLTEDFFVVTVSIDDDTPMLLIFGHLPRVLFKAPYQRDNFILRQTEKHELLVLVKKDQLNRHSYLKDPDFLDAALDFNYLDLSALLRNSFHRYAVDVLKSGRCQMLDRRTVEMAFAYALALFAAARQEEAGAQVSVPRALDRQAALLQIQEFMITCLSQTPPRTTLLLYPTAVDLAKRALWTPNQITDITSLVRLVYILSKQNQQHLIPQWALRQIADFALKLHKTHLASFLSAFARQELYLMGSLVHSMLVHTTERREIFIVETGLCSLAELSHFTQLLAHPHHEYLSDLYTPCSSSGRRDHSLERLTRLFPDATVPTTVPAALSILSTMQPSTLETFPDLFCLPLGESFSALTVSEHVSYVVTNQYLIKGISYPVSTTVVGQSLIITQTDSQTKCELTRNMHTTHSITAALNISLENCAFCQSALLEYDDTQGVINIMYMHDSDDVLFALDPYNEVVVSSPRTHYLMLLKNGTVLEVTDVVVDATDSRL
chain 2: VAVSVAPTAAEKVPAECPELTRRCLLGEVFQGDKYESWLRPLVNVTRRDGPLSQLIRYRPVTPEAANSVLLDDAFLDTLALLYNNPDQLRALLTLLSSDTAPRWMTVMRGYSECGDGSPAVYTCVDDLCRGYDLTRLSYGRSIFTEHVLGFELVPPSLFNVVVAIRNEATRTNRAVRLPVSTAAAPEGITLFYGLYNAVKEFCLRHQLDPPLLRHLDKYYAGLPPELKQTRVNLPAHSRYGPQAVDAR
chain 3: RVPRVRAEECCEFINVNHPPERCYDFKMCNRFTVALRCPDGEVCYSPEKTAEIRGIVTTMTHSLTRQVVHNKLTSCNYNPLYLEADGRIRCGKVNDKAQYLLGAAGSVPYRWINLEYDKITRIVGLDQYLESVKKHKRLDVCRAKMGYMLQ
chain 4: SPWSTLTANQNPSPPWSKLTYSKPHDAATFYCPFLYPSPPRSPLQFSGFQQVSTGPECRNETLYLLYNREGQTLVERSSTWVKKVIWYLSGRNQTILQRMPQTASKPSDGNVQISVEDAKIFGAHMVPKQTKLLRFVVNDGTRYQMCVMKLESWAHVFRDYSVSFQVRLTFTEANNQTYTFCTHPNLIV
chain 5: QCQRETAEKNDYYRVPHYWDACSRALPDQTRYKYVEQLVDLTLNYHYDASHGLDNFDVLKRINVTEVSLLISDFRRQNRRGGTNKRTTFNAAGSLAPHARSLEFSVRLFAN

For assay [1], the target named is B6. As to the kind of experiment: SPR. A general note: In SPR one partner is held on a chip, and binding of the other changes the refractive index at the surface.
Assay [2] addresses 1-32–captured Pentamer (HCMV Pentamer bound by 1-32 IgG) (human cytomegalovirus (strain Towne) | …, UniProt P17176 24-718). As to the kind of experiment: BLI; Pentamer captured by 1-32 IgG. (In general: BLI is a label-free optical method that tracks binding on a fibre tip over time.)
The target in assay [3] is B6. The assay is described as follows: SPR.
For assay [4], the target named is T1, monoFc-tagged NRP2 (human neuropilin 2 a1a2b1b2, residues 23 to 595) (human, UniProt O60462 23-595).
T1 chain: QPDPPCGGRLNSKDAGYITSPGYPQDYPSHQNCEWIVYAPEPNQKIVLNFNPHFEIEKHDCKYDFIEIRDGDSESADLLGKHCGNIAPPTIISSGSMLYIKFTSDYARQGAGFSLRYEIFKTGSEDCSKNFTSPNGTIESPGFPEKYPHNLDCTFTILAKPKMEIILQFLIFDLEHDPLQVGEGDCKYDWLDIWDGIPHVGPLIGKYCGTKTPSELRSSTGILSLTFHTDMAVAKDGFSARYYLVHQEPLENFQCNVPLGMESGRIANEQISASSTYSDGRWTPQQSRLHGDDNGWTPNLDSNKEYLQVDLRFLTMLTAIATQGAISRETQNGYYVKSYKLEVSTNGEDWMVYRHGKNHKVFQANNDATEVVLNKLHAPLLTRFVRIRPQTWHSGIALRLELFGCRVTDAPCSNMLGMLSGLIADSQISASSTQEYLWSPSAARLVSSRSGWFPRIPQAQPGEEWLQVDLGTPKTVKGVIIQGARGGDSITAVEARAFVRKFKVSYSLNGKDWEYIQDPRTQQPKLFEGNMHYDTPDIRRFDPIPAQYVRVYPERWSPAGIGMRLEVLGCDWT
As to the kind of experiment: BLI; 2 mM Ca2+.

Assay [5] addresses T2, NRP2 a2b1b2 (human neuropilin 2 residues 145 to 595, monomeric IgG1 Fc tag) (human, UniProt O60462 145-595).
T2 chain: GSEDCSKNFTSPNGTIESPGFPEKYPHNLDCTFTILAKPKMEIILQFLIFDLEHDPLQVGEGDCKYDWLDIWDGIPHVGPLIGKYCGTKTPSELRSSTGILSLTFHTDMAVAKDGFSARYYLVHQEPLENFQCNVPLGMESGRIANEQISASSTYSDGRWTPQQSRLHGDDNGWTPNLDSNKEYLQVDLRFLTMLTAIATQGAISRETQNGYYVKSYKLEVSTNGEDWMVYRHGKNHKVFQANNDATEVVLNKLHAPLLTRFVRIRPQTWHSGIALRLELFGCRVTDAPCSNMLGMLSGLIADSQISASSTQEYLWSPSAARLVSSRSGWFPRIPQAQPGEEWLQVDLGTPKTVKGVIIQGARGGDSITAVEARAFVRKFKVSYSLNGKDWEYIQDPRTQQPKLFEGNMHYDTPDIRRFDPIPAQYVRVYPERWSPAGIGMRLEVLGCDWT
The assay is described as follows: BLI; 2 mM Ca2+.

B1: Fab 1-103 (Fab, V domains shown)
VH: QLQLQESGPGLVKPSETLSLTCSVSGDAISGSNYYWGWIRQPPGKGLQWIGSIYHTGSTFYNPSFSSRVTLSVDTSKNQFSLKLISVNAADTAVYYCARRIRGYSGTYDWGQGTLVTVSS
VL: DIQLTQSPSFLSASVGDRVTITCRASQDISSYVAWYQQKPGNAPKLLISSASTLPSGVPSRFSGSRSGTDFTLTISSLQPEDFATYYCQQLNNFGPGTTVDIK
For orientation: Kd means the constant that tells how readily two partners part at equilibrium. Read a low Kd as tighter binding. B1 displayed a Kd in assay [1] of 3.11 nM.

B2: untagged NRP2 (receptor)
chain: RGQPDPPCGGRLNSKDAGYITSPGYPQDYPSHQNCEWIVYAPEPNQKIVLNFNPHFEIEKHDCKYDFIEIRDGDSESADLLGKHCGNIAPPTIISSGSMLYIKFTSDYARQGAGFSLRYEIFKTGSEDCSKNFTSPNGTIESPGFPEKYPHNLDCTFTILAKPKMEIILQFLIFDLEHDPLQVGEGDCKYDWLDIWDGIPHVGPLIGKYCGTKTPSELRSSTGILSLTFHTDMAVAKDGFSARYYLVHQEPLENFQCNVPLGMESGRIANEQISASSTYSDGRWTPQQSRLHGDDNGWTPNLDSNKEYLQVDLRFLTMLTAIATQGAISRETQNGYYVKSYKLEVSTNGEDWMVYRHGKNHKVFQANNDATEVVLNKLHAPLLTRFVRIRPQTWHSGIALRLELFGCRVTDAPCSNMLGMLSGLIADSQISASSTQEYLWSPSAARLVSSRSGWFPRIPQAQPGEEWLQVDLGTPKTVKGVIIQGARGGDSITAVEARAFVRKFKVSYSLNGKDWEYIQDPRTQQPKLFEGNMHYDTPDIRRFDPIPAQYVRVYPERWSPAGIGMRLEVLGCDWTDSKPTVETLGPTVKSEETTTPYPTEEEATECGENCSFEDDKDLQLPSGFNCNFDFLEEPCGWMYDHAKWLRTTWASSSSPNDRTFPDDRNFLRLQSDSQREGQYARLISPPVHLPRSPVCMEFQYQATGGRGVALQVVREASQESKLLWVIREDQGGEWKHGRIILPSYDMEYQIVFEGVIGKGRSGEIAIDDIRISTDVPLENCMEPISAFAGENFKVDIPEIHEREGYEDEIDDEYEVDWSNSSSATSGSGAPSTDKEKSWLYTLDPILITIIAMSSLGVLLGATCAGLLLYCTCSYSGLSSRSCTTLENYNFELYDGLKHKVKMNHQKCCSEA
A word on the koff: it is the first-order rate constant of dissociation. Lower therefore signals a long-lived complex. Regarding B2, in assay [2], the koff amounted to 0.00177 s⁻¹.

B3: Fab 1-32 (Fab, V domains shown)
VH: QVKLVESGGGVVQPGRSLRLSCAGSGFAFDNYAMHWVRQAPGKGLEWVAVISLEGRNKYYAGPAKGRFSISRDNSRNTVHLQMNSLRPEDTAVYFCARDMRYYYDSNGHYRNRYGMDVWGQGTTVIVSS
VL: DIQMTQSPSSLSASVGDSVTITCQASQDINQFVSWYQQKPGKPPKLLIYDASNLESGVPSRFSGSGSGTHFTFTISSLQPDDIATYYCQQYENLFTFGPGTKVDIK
As for B3, in assay [1], the Kd was 2.82 nM. For the same molecule, the koff in assay [3] came to 0.000264 s⁻¹.

B4: Fab 2-18 (Fab, V domains shown)
VH: EVQLVQSGGGLVQPGGSLRVSCAASGFSFSDHDMDWVRQAPGKGFEWVGRSRNKDYSSTTEYAASVRGRFTISRHTSEDLLYLELNTVKTEDTAVYFCARGPHHSDRSGYYGGTFDIWGQGTMVTVSS
VL: DIQMTQSPSSVSASVGDRVIITCRASQGISSWLAWYQQKPGRAPRLLIYDASTLESGVPSRFSGRGSGTEFTLTINSLQPEDFATYYCQQGNMFPLTFGGGTKVEIK
B4: in assay [1], binding was characterised by a dissociation constant (Kd) of 0.0493 nM.

B5: Fab 2-25 (Fab, V domains shown)
VH: QVQLVESGAEVKKPGASVKVSCKASGYTFTNYAIHWVRQAPGQRLEWMGWINAGRGNTKYSQKFQGRVTITRDTSASTAYMELSSLRSEDAAVYFCARDESTGDYYYYMDVWGKGTTVTVSS
VL: SYELTQPPSVSVSPGQTASITCSGDRLDDKYASWYQQKAGQSPVLVIYQDNKRPSGIPERFSGSNSGNTATLTISGTQAMDEADYYCQAWDSDTYVFGTGTKVTVL
Regarding B5, binding in assay [1] was characterised by a dissociation constant (Kd) of 1.08 nM. For B6, the off-rate (koff) was 0.000271 s⁻¹ in assay [4] and 0.00104 s⁻¹ in assay [5].
